In article PMC3405053:

Biological target: MKP-3, endogenous in mouse liver (mouse (endogenous in C57BL/6 liver)) (UniProt Q9DBB1)
Assay: co-IP; liver lysates of C57BL/6 mice injected with adenoviruses (GFP or FOXO1 3A, plus shGFP or shMKP-3); MKP-3 immunoprecipitated with MKP-3 antibody-bound Exactra D matrix; western blot for FOXO1, quantified

UniProt Q9DBB1, sequence (Q9DBB1 whole entry): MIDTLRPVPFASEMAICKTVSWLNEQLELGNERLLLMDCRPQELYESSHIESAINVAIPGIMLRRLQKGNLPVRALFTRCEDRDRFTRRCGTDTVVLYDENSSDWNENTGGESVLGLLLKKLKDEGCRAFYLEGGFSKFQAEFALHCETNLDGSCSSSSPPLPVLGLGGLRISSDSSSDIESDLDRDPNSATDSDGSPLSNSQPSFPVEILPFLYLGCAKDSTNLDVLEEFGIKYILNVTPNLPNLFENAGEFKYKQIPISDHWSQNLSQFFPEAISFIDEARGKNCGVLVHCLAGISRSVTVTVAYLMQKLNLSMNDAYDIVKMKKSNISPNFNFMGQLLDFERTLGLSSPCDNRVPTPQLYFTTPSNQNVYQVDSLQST

Q: For “FOXO1 3A (Akt phosphorylation resistant FOXO1 mutant), over-expressed in mouse liver (from UniProt Q9R1E0 1-652) (natural protein)”, which fold of FOXO1/FOXO1 3A protein associated with MKP-3 compared to GFP control is on record?
A: The fold of FOXO1/FOXO1 3A protein associated with MKP-3 compared to GFP control was 7.9 fold.
